According to paper doi:10.1101/2022.03.30.486377 (bioRxiv, 2022):

How the values were obtained:
Assay in all cases: ELISA
[1] = target: SARS-CoV-2 S2 in postfusion conformation (SARS-CoV-2 (D614G ectodomain; D614G …, UniProt P0DTC2, strain)
[2] = target: SARS-CoV-2 S PentaPro (F817), prefusion S trimer (SARS-CoV-2, Wuhan-Hu-1 sequence, UniProt P0DTC2, stabilised)
[3] = target: SARS-CoV-2 S2 PentaPro in prefusion conformation (SARS-CoV-2, Wuhan-Hu-1 sequence, UniProt P0DTC2, stabilised)

Measured: binding result

B1: C77G12 mAb (antibody, V domains shown)
VH: EVQLVESGGGVVQPGRSLRISCAVSGFTFGSYAMHWVRQAPGKGLEWVGVMSSDGHNEYYADSVKGRFTISRDNSRNKLYLEMNNLRVDDTAVFYCARGSDYVDDSPPLHYWGQGTLVTVSS
VL: DIQLTQSPSSLSASIGDRVTITCRASQDIANKLAWFQQAPGKAPKSLIYAASRLQSGVPSQFSGSGSGTDFTLTIESLQAGDFATYFCQQYDSFPFTFGPGTKVDVK
binds: all assays above

B2: VP12E7 mAb (antibody, V domains shown)
VH: QVQLVQSGGGVVQPGESLRLSCSGSGFTFNNYIMHWVRQAPGQGLDYVSGIGSDGRNTNYGDSVKGRFTISRDNSKDTLYLQMTSLRAEDTAFYYCVKGLDVLRFLDLSTPSGERLDAFDIWGQGTMVTVSS
VL: DIVMTQSPSFLSASVGDRVTITCRASQGISNYLAWYQQKPGKAPHLLIYAASTLQSGVPSRFSGSGSGTEFTLTISSLQPEDFATYYCQQLNSYPLFTFGPGTKVDIE
binds: all assays above

B3: VN01H1 mAb (antibody, V domains shown)
VH: EVQLVESGGGLVLPGGSLRLSCSASGFTFSDFSMHWVRQSPGKGLEYVSAITSSGSSTYYPDSVKGRFTISRDNSKNTLYLQMGSLRVEDTAVYWCVKNSDVFRFPHLYFDVWGRGTLVTVSS
VL: not shown
binds: all assays above

B4: C13C9 mAb (antibody, V domains shown)
VH: EVQLVQSGPEVKKPGTSARVSCKASGFTSKNTALQWVRQARGQPLEWMGWIDISNYITNYAQKFRGRLTITWDLSASMAYMELSSLRSEDTAVYYCAAVGKDDDVLTGGNKYFDHWGQGTLVTVSS
VL: SYELTQPPSVSVSPGQTARITCSGDALPKKYAYWYQQKSGQAPVLVIHEDDKRPSGIPGRFSASSSGTTATLTISGAQVEDEADYYCYSTDTNDNHAFGSGTKLTVL
binds: all assays above

B5: C13B8 mAb (antibody, V domains shown)
VH: QVQLQESGPGLVQPSQTLTLTCTVSGDSISNEDYHWTWIRQHPGKGLEWMGYLQYSGNTNYNPSLKSRMTISVDTSKNQFSLRLNSVTAADTAVYFCATSIVLTGMSNKIQPFDYWGQGTLVTVSS
VL: SYELTQPPSVSVSPGQMARITCSGEALPKKYAYWYQQKGGQFPVLVIYKDTERPSGIPERFSGSSSGTIVTLTISGVQPEDEADYYCLSADTSGTWVFGGGTKLTVL
binds: all assays above
